Here are results for 41 sequences from the nanobody polyreactivity screen of Harvey et al. (2022).

A short description of the data set: yeast display, Sf9 membrane polyspecificity reagent, FACS + sequencing; frameworks hold sequencing errors. A digest of the protocol:
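Galactose induction of a Saccharomyces cerevisiae BJ5465 synthetic nanobody display library ran 36–48 hours. The cells were then stained for 1 hour at 4 °C with 10% biotinylated, detergent-solubilized Sf9 membrane reagent, pulled down on streptavidin microbeads and FACS-sorted into low and high (top ~1%) gates on expression and reagent-binding fluorescence. Labels for polyreactivity follow the gate of origin.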
Take “QVQLQESGGGLVQAVGSLRLSCAASGYISSWYPMGWYRQAPGKEREFVATIAPGATTYYADSVKGRFTISRDYAKKTVYLQMNSLKPEDTAVYYCAAGPEKNDFYSYWGQGTQVTVSS”: the “polyreactivity (PSR sort gate)” value is reported as “low polyreactivity”.

Turning to “QVQLQESGGGLVQEGGSLRLSCASSGNISPPADMGWYRQAPGKERELVASMGTGGTTNYADSVKGRFTISRDNAKNTVYLQMNSLKPDDTAVYYCAAVRYEYNPYDYWGQGTQVTVSS”, the “polyreactivity (PSR sort gate)” value is “low polyreactivity”.

Turning to “QVQLQESGGGLVQGGGSLRLSCAASGSIYRSWYMGWYRQAPGKERELVASITEGATTNYAYSVKAALPLAAITRNTVYLQMDSMKPEDTAVYYRAASFGSTYDLVYWGQGTQVTVSS”, the “polyreactivity (PSR sort gate)” value is recorded as “high polyreactivity”.

Consider “QVQLQESGGGLVQPGGSLRLSCAATGTISDSGLMGWYRQAPGKERELVSGISSGGITQYADSVNGRFTISRDNAKNTVYLQMNSLKPEDTAVYWGQGTQVTVSS”, for which the “polyreactivity (PSR sort gate)” value is “low polyreactivity”.

For “QVQLQESGGGLVQVGGSLRLSCAASGTIFIYGFLGWNRQAPGKERDLVASINLGGITNYADSVKGRFTISRDNAKITVYLQMNSLKPEDTAVYYCAADGGESAWGGYDYWGQGTQGTVSS”, the “polyreactivity (PSR sort gate)” value is recorded as “low polyreactivity”.

Take “QVQLQESGGGMVQAGGSLRLSCAASGYISWADYMGWYRQAPGKERELVAGIGYGSTTYYADSVKGRFTISRDNAKNTAYLQMNSLKPEDTAVYYCNADVRYGRDHWGQGTQVTVSS”: the “polyreactivity (PSR sort gate)” value is “low polyreactivity”.

Turning to “QVQLQESGGGMVQAGGSLRLTCAATGYISSCYPMRWYRQAPGKEREFVATIAPGATTYYADSVKGRFTISRDYAKNTVYLQMNSQKPEATAVYVCAAGPENIDFYSYWGQGTQVTVSS”, the “polyreactivity (PSR sort gate)” value was “low polyreactivity”.

Consider “QVQLQESGGGQVLAGGSLRVSCAASGYIPYSRWMGWNRQAPGKEREFVAGIGYGSSTYYADSVKGRFTISRDNAKNTVYLQMNSLKPEDTAVYYCNASIFFRRNVTQVRMDYWGQGSQVTVSS”, for which the “polyreactivity (PSR sort gate)” value is given as “high polyreactivity”.

Take “QVQLQESGGGRMQAGGSQRLSCAASGSISYYSDMGWYRQAPGKEREFVAGIGYGTTTNYADSVKGRFTTSRDNAKNTVYLQMISMKPEDTAVYYCAAYQGNGYEFYYWGQGTQVTVRS”: the “polyreactivity (PSR sort gate)” value is “low polyreactivity”.

Turning to “QVQLQESGGLEQAGVSLRLSCAACGNIFYDTYICWYRQGKERELVASIDHAGSTNYADSVIGRFTISRDNAKNTSYLQRNSLKPDDTAVYYCNAEYTKTGALLIPYTYYYAEDYWGQGTQVTVSS”, the “polyreactivity (PSR sort gate)” value is on record as “low polyreactivity”.

As for “QVQLQESGGLVQAGGLRLSCAASGSDSYQEDMAWYRQAPGKERELVATISFGANTNYADSVKGRFTISRDNAKNTVYLQMNSLKPEDTAVYYCAAESLFDDYYGYWGQGTQVTVSS”, the “polyreactivity (PSR sort gate)” value is reported as “low polyreactivity”.

As to “QVQLQESGGLVQAGGSLRLSCAASGSISGRNVMGWYRQAPGKEREFVASITDGSSTNYADSVKGRFTISRDNAKNTVFLQMNSLKPKDTAVYYCAAYAQGAKSFGYWGRGTQVTVSS”, the “polyreactivity (PSR sort gate)” value is on record as “low polyreactivity”.

With “QVQLQESGGSLVQAGGSLRLSCAASGNILVLPHGLVSPGAERELVATITGGSITYYADSVKGRFTISRDNAKNTVYLQMNSLKPGDTAVYYCAVINIYHRPHPYWGQGTLVTVSS”, the “polyreactivity (PSR sort gate)” value is “high polyreactivity”.

“QVQLQESGGSLVQAGGSLRLSCAASGSISYPRTMGWYRQAPGKEREFVAGIGVGGTTYYADSVKGRFTISRDNAKITVYLQMNSLKPEDTAVYYCARRRSGPSVLYYYWGQGTQVTVSS”: the “polyreactivity (PSR sort gate)” value was “low polyreactivity”.

In the case of “QVQLQESGGSPVQAGGGLRLSCAASGYISVGSVMGWYRQAPSKERELVASIDQGANTNYADSVKGRFTISRDNAKNNVYLQMNSLKPEDTAVYYCATETTYILNYWGQGTQVTVSS”, the “polyreactivity (PSR sort gate)” value is reported as “low polyreactivity”.

Take “QVQLQESGGVLVQAGGDLRLSCAASGNIFRDYIMGWYRQAPGQERDFVAGIDRGANTNYADSVKGRFTISRDNAKNTVYLQMNSLKPEDTAVYYCAVHTAIVPDFIYWGQGTQVTVSS”: the “polyreactivity (PSR sort gate)” value is reported as “low polyreactivity”.

On to “QVQLQESGGVLVQAGGSLRLSCAARGYISLAQTIGWYRQAPGKEREFVASIALGSSTYYTDSEKGSFTISRDNAKTTVYLQMNSLKPEDTAVYYCAARVGASYAHDYWGQGTEVTVSS”, for which the “polyreactivity (PSR sort gate)” value is given as “low polyreactivity”.

Regarding “QVQLQESGGVLVQAGGSLRLSCAASGSIFVSVTMGWYRQAPGKERELVASIGRGSTTNHADSVKGRFTISRDNAKNIVYLLMNSLKPEDTAVYYCAALESYGKYHGYWGQGTQVTVSS”, the “polyreactivity (PSR sort gate)” value is “low polyreactivity”.

As for “QVQLQESGGVLVQAGGSLRLSCAASGSIYDDTYMGWYRQAPGKERELVATIDSGSTTNYADSVKGRITICRDNAKNSVDLQMNTLKPEDTAVYYCAAADSHIDYFDYWGQGTQVTVSS”, the “polyreactivity (PSR sort gate)” value was “low polyreactivity”.

As for “QVQLQESGGVQEQEGGSLRQSCAESGTIFLYAYMGWYRQAPGKERELVAAIDVGTTTNYADSVKGRFTICRDNAKNTVYLQMNSLKPDDTAVYYCAANLGYLDDLGYWGQGTQVTVSS”, the “polyreactivity (PSR sort gate)” value was “low polyreactivity”.

As to “QVQLQESGRGLVQAGGSLRLSCAASGTISSRWGKGWYLQAPGKERELFASNDQGASTYYADSVKGRFTISRDNAKNTVYLQMNSLKPEDTEVYYCIAVPSSAGDYWGQGTQVTVSS”, the “polyreactivity (PSR sort gate)” value is on record as “low polyreactivity”.

Turning to “QVQLQESGSGLVQAGGSLRLSCAASGAIFPANLMGWYRQAPGKERELVAGISYGSITYCADSVKGRFNISRDNAKNTVYLQMNSLKPEDTAVYYCAVWRPGGDEYYYWGQGTQVTVSS”, the “polyreactivity (PSR sort gate)” value is reported as “low polyreactivity”.

Take “QVQLQESGVGLVQAGGCLSCTASCTIFGQGDMCWYRQAPGKERELVATINDGASTYYADSVKGRFTISRDKAKNTVYLQMKSLKPDVTAVYYCAVFTDITTYFGYWGQGTQVTVSS”: the “polyreactivity (PSR sort gate)” value was “low polyreactivity”.

Turning to “QVQLQESGVGLVQAGGSLRLSCAASGYITARDAMVWYRQAPGKEREFVATIASGTTTYYADSVKGSFTISRDNEENTVYLQTNSLKPEDTAVYYCAAPTIQIYPFYYWGQGTQVTVSS”, the “polyreactivity (PSR sort gate)” value is given as “high polyreactivity”.

Turning to “QVQLQESRGGLVQAGGSLCLSFAASGTIFFDGDMGGYRQAPGKEREFVAAINPGGSGYYADSVKGRLPLAAITHTVYLQMNSLKPEDTAVYYCAAKLFDVYGYYYWGQGTQVTLSS”, the “polyreactivity (PSR sort gate)” value is recorded as “low polyreactivity”.

Take “QVQLQESSGGLVQAGGSLRMSCAASGTIFHFHIMGWYRQAPGKEREFVAAISYGTSTYYADSVKGRFTISRDNAKKTVYLQMNSQKPEDTAVYYCAVYDDLEVYCWYWGQGTEVTVSS”: the “polyreactivity (PSR sort gate)” value was “low polyreactivity”.

As for “QVQLQESVGGLVHAGGSLRLSCAASGSISAVGAMGWYRQAPGKEREFAASVNWGTNTNYADSVKGRFTISRDNAKNTLYLQMNSLKPEDTAVYYCAVLPDWETRHDYWGHGTQVTVSS”, the “polyreactivity (PSR sort gate)” value was “low polyreactivity”.

In the case of “QVQLQESVGGLVQAGGSLRLSCASSGSISNSAAMGWYRQAPGKERELVVSIGHGASSNYADSVKGRFTISRDNAKNTVYLQMNSLKPEDTAVYYCAAYPGFLDGFFYWGQSTQVTVSS”, the “polyreactivity (PSR sort gate)” value is on record as “high polyreactivity”.

Turning to “QVQLQESVGGPVLAGGSLRLSCGASGTIFVRLDMGWYRQARGKVREFVATIGSGSSTYYADSVKGSFTISRDNVKNTVYLKMNSLKPEDTAVYYCAVYAAEQSRHYYWDQGTQVTVSS”, the “polyreactivity (PSR sort gate)” value was “low polyreactivity”.

Turning to “QVQLQGSGGGLVQAGGSLRLSCAASAYIFQNHPMGCNRQAPGKERELVAGIDNGTSTNYADSVNGRFTISRDNAKNTVYLQMNSLKPEDTAVYYCAAAGQADDTLGYWGQGTQVTVSS”, the “polyreactivity (PSR sort gate)” value is “low polyreactivity”.

As for “QVQLQVSGGGLVQAGGSLRLSCAACGSNFLTAEMGWYLQAPGKERELVAAIATGTSTNYADSVKGRFTISRDNAKNTVYLQMNSLKREDTALYYCATYHYWGQGTQVTVSS”, the “polyreactivity (PSR sort gate)” value is on record as “low polyreactivity”.

Turning to “QVQLRESGAGGRQPAPEMRGERQYFYWSADGLVSQGPGKEREFDAGIDRGTITNYADSVRGRFTISRDNAKNTVYLQMNSLKPEDTAVYYCAVPAYGDPRSYYWGQGTHVTVSS”, the “polyreactivity (PSR sort gate)” value is on record as “high polyreactivity”.

Turning to “QVQLRESGGGLVQAGGSLRLSCAASGRIFGNYSMGRYRQAPGKEREMVAAISGGGSTYYADSVKGRFTISRDNAKNTVYLQMTSLKPEDTAVYYCADRFLWSVFCRKGGYWGQGTQVTVSS”, the “polyreactivity (PSR sort gate)” value was “low polyreactivity”.

For “QVQLVASGGGLVQAGGSLLLSCAASGSIFDYNAMGWYRKAPGKERELVAAISSSGGSTYYADSVKGRFTISRDNAKNTVYLQMNSLKPEDTAVYYCNNVSRYILGSGYGYWGQGNQVTVSS”, the “polyreactivity (PSR sort gate)” value is reported as “high polyreactivity”.

In the case of “QVQLVASGGGLVQAGGSLRFSCAASGRPLSYYAMGWYREAPGKERELVAAISRRGGSTYYADSVKGRFTISRDNAQNTVYIQMNSLKPKDTAVYYCAAETFDYADYIANGSGEYDYWGQGTQVTVSS”, the “polyreactivity (PSR sort gate)” value is “high polyreactivity”.

As to “QVQLVASGGGLVQAGGSLRLSCAASGGTLDYYVMGWYRQAPGKERELVAAISTNGGSTNYADSVKGRFTISRDNAKNTVYLQMNSLKPEDTAVYYCAATSDVYVFLEFDYWGQGTQVTVSS”, the “polyreactivity (PSR sort gate)” value was “low polyreactivity”.

Consider “QVQLVASGGGLVQAGGSLRLSSAASGYIFAPNAMGWYRQAPGKERELVAAITFSGGSTSYADSVKGRFTISRDNAKNTVYLQMNSLKPEDTAVYYCNRDDAGIMDYWGLGTQVTVSS”, for which the “polyreactivity (PSR sort gate)” value was “low polyreactivity”.

For “QVQLVDSAAGLVQARRSLRLSCAASGRTFPLNVMGWYRLAPGKEREFVAAIRWNGGSTYYADSVKGRFTISRDHAKNTVYLQLNCLIPEDTSVYYCAAQLFRRGRYAGNPMDYWGQGTQVTVSS”, the “polyreactivity (PSR sort gate)” value was “high polyreactivity”.

On to “QVQLVDSAGGLVQSGGSQRLSCAASGSIFHVYPMGCYRQAPGKERELVAAIRRRGGSTYYADSVKGRFTISRDTAKNTVYLQMNSLKPEDTAVYYCAARSVGFYRYDYWGQGTQVTVSS”, for which the “polyreactivity (PSR sort gate)” value is “low polyreactivity”.

In the case of “QVQLVDSAVGLVQAGGSLRLSCPASGSIISFYTMGWYRQAPGKERDLVASSTTYADSVKGRFTISRDNAKNTVYLQMNSLKPEVTAVYYCATRHPARRDYWGQGTQVTVSS”, the “polyreactivity (PSR sort gate)” value is “low polyreactivity”.

“QVQLVDSGGALVQAGGSLRISCAASGYIFSYKAMGWYRQAPGKERELVAAITSGGSTNYADSVKGRFTISRDNAKNTVYLQMKSLKPEDTAVYYCAAERGDTAYRKYDYWGQGTQVTVSS”: the “polyreactivity (PSR sort gate)” value is on record as “low polyreactivity”.
